{"source": "paper PMC6071530", "target": "Recombinant human S100A4 (human) (UniProt P26447)", "sequence (P26447 whole entry)": "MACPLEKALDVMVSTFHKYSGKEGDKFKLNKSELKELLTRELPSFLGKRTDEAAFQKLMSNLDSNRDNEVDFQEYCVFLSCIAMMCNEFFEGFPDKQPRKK", "assay": "SPR; BIAcore 2000; 2000 RU of recombinant human S100A4 immobilized covalently on a CM4 chip; soluble AR or NRG as analyte"}
{"substance": "Neuregulin 1 (from UniProt Q02297 20-241) (ligand)", "values": [{"measurement": "Kd", "result": 19.9, "unit": "nM"}]}
